Values of other authors as cited in paper PMC8033747.

Molecular target: CHMP3 (Homo sapiens) (UniProt Q9Y3E7)
Experiment: SPR

Chain of CHMP3 (Homo sapiens) (Q9Y3E7 2-222): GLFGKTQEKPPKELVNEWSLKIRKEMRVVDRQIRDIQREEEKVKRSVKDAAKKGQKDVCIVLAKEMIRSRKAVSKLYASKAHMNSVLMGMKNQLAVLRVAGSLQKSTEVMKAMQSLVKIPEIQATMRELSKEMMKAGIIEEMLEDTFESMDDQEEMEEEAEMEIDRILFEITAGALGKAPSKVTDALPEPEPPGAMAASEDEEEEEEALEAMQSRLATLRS
Chain of CHMP2A (O43633 whole entry): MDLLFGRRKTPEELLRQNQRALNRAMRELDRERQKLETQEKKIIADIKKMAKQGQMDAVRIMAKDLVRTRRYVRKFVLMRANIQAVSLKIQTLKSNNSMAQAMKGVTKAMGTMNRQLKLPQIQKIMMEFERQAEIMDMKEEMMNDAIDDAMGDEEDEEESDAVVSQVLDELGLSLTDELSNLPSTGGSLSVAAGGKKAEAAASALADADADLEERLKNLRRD
Chain of CHMP2B (Q9UQN3 2-213): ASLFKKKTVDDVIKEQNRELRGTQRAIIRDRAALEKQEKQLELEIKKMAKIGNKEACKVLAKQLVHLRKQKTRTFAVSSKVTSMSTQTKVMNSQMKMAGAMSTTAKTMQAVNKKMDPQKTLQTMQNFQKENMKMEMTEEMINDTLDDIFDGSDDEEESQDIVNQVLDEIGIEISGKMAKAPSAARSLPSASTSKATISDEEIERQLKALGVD

Substance	Kd
CHMP2A (from UniProt O43633)	3200 nM
CHMP2B (from UniProt Q9UQN3)	1400 nM
